US11555055B2, “Peptide inhibitors of insulin-degrading enzyme” (The Regents of the University of California, priority 2017, dated 2023)
Where a SMILES comes first, the peptide text is derived from it. Bridges are numbered along the chain shown (N, C = ends). Where no end group is shown, it is not given here.

Key:
[1] = biological target: T1, IDE (Homo sapiens, UniProt P14735); test: IDE protease activity assay with FRET1 substrate; type: biochemical; details: Ki converted from IC50 with the Cheng-Prusoff equation
T1 construct: made in house; host or cells: bacteria
T1 sequence (P14735 1-1019): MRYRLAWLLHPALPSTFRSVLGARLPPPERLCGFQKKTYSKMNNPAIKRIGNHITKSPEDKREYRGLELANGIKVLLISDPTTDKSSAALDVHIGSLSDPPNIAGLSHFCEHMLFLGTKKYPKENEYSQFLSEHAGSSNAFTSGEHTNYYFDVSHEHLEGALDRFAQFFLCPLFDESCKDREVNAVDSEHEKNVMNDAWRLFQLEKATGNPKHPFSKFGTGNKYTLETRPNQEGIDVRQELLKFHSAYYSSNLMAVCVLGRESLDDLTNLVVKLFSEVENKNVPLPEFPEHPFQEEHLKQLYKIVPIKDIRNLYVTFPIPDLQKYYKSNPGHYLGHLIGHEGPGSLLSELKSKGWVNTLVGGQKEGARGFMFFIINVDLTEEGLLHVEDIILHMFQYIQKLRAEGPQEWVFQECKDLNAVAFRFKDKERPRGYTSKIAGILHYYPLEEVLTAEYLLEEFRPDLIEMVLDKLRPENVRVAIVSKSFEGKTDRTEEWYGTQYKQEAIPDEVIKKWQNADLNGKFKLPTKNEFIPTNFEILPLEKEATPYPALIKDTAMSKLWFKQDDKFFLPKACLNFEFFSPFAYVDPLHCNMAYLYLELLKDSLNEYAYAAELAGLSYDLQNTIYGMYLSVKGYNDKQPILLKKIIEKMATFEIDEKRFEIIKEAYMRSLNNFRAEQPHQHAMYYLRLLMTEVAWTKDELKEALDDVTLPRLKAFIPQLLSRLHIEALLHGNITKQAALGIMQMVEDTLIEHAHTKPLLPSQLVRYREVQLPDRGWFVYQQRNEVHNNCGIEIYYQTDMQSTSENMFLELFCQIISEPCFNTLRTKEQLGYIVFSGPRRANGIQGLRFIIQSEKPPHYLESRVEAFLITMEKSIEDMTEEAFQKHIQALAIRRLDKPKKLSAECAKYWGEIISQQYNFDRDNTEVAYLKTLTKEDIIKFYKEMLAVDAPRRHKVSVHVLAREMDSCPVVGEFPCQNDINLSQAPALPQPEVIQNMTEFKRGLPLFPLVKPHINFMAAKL

[2] = biological target: T1, IDE; test: IDE protease activity assay, insulin degradation quantified by ELISA; type: biochemical; details: substrate recombinant human insulin; Ki converted from IC50 with the Cheng-Prusoff equation; read-out: Ki Insulin
Method: To assess the extent to which these peptide sequences inhibit IDE, we quantified their potency in protease activity assays using recombinant human IDE and two different substrates: FRET1, a fluorogenic peptide (45), and recombinant human insulin.
Degradation Assays—IDE activity was quantified by monitoring the degradation of (7-methoxycoumarin-4-yl)acetic acid-[…](2,4-dinitrophenyl) (FRET1, 5 μM) (49,55), fluoresceinated and biotinylated amyloid β-protein (FAβB; 500 nM) or recombinant human insulin (50 nM) in PBS supplemented with 0.05% BSA. FRET1 degradation was measured by changes in fluorescence (λex=340 nm, λem=420 nm); FAβB degradation was monitored by fluorescence polarization (λex=488 nm, λem=525 nm), as described (56); and insulin degradation was quantified by ELISA. In vitro activity assays incorporated recombinant human IDE (1 nM) purified from bacteria (35). For quantitation of insulin degradation in primary murine skin fibroblasts, cells (1×10^5/well) were plated in 96-well plates and maintained in DMEM supplemented with 10% fetal bovine serum (FBS), 2 mM glutamine, penicillin and streptomycin. After addition of insulin (10 nM or 100 nM), samples of conditioned medium were removed daily and quickly frozen, then insulin levels were quantified in parallel by ELISA according to manufacturer's recommendations (Crystal Chem, Downers Grove, Ill., USA). Assessment of the activity of P12-3A against a variety of matrix-metalloproteases was conducted using the Matrix Metalloproteinase (MMP) Inhibitor Profiling Kit, Fluorometric RED (Enzo Life Sciences, Inc., Farmingdale, N.Y., USA) according to manufacturer's recommendations using the broad-spectrum MMP inhibitor, NNGH, as a positive control.

[3] = biological target: T2, recombinant human insulin-degrading enzyme (IDE) (human, UniProt P14735 42-1019, limits assumed); test: IDE activity assay, insulin substrate (ELISA)
T2 construct: Used at 1 nM in the in vitro activity assays; immobilised on plates for phage panning
T2 sequence (looked up): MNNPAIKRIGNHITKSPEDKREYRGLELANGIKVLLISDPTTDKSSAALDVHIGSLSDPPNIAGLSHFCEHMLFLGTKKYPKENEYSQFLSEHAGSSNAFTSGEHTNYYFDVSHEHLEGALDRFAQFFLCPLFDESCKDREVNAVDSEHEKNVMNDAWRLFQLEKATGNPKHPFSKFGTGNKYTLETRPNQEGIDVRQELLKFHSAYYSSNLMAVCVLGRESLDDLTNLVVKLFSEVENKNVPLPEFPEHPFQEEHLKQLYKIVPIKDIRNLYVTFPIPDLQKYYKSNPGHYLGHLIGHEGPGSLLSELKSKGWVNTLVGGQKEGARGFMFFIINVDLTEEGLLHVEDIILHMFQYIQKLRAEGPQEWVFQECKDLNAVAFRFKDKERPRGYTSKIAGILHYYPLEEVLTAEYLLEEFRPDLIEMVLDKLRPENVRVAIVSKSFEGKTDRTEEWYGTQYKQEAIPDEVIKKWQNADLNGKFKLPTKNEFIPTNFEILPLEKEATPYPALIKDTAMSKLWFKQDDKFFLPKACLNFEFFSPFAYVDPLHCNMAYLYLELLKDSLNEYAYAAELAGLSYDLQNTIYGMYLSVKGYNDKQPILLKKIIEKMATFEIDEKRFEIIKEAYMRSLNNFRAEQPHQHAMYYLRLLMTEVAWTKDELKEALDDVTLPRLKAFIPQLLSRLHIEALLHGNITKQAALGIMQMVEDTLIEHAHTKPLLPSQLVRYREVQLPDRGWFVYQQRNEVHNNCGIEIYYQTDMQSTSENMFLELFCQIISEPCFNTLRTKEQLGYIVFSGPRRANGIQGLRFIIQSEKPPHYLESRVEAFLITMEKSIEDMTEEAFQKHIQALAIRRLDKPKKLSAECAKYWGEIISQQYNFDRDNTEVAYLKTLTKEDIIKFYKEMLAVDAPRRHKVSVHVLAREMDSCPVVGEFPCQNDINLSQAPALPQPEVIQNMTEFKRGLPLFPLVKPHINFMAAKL

[4] = biological target: T2, recombinant human insulin-degrading …; test: IDE activity assay, FRET1 substrate
[5] = biological target: T2, recombinant human insulin-degrading …; test: IDE activity assay, FRET1 substrate; IC50 converted to Ki (Cheng-Prusoff)

`CC(C)[C@H](N)C(=O)N[C@@H](Cc1c[nH]cn1)C(=O)N[C@@H](Cc1c[nH]c2ccccc12)C(=O)N[C@@H](CC(=O)O)C(=O)N[C@@H](Cc1ccccc1)C(=O)N[C@@H](CCCNC(=N)N)C(=O)N[C@@H](CCC(N)=O)C(=O)N[C@@H](Cc1c[nH]c2ccccc12)C(=O)N[C@@H](Cc1c[nH]c2ccccc12)C(=O)N[C@@H](CCC(N)=O)C(=O)N1CCC[C@H]1C(=O)N[C@@H](CO)C(N)=O` [Peptide P12-1A] (H-VHWDFRQWWQPS-NH2) gave a Ki [1] of 5 ± 0.3 µM and a Ki [2] of 1.3 ± 0.2 µM.

Molecule `CC[C@H](C)[C@H](NC(=O)[C@@H]1CCCN1C(=O)[C@H](CO)NC(=O)[C@@H](N)Cc1c[nH]c2ccccc12)C(=O)N[C@@H](CO)C(=O)NCC(=O)N[C@@H](CCCCN)C(=O)N[C@@H](Cc1ccccc1)C(=O)N[C@@H](Cc1ccccc1)C(=O)N[C@@H](CCC(N)=O)C(=O)N[C@@H](CCCNC(=N)N)C(=O)N[C@@H](Cc1ccccc1)C(=O)O` [Peptide P12-4] (H-WSPISGKFFQRF-OH) has a Ki [1] of 3.9 ± 0.5 µM and a Ki [2] of 1.5 ± 0.3 µM.

Molecule `CC(C)[C@H](N)C(=O)N[C@@H](Cc1c[nH]cn1)C(=O)N[C@@H](Cc1c[nH]c2ccccc12)C(=O)N[C@@H](CC(=O)O)C(=O)N[C@@H](Cc1ccccc1)C(=O)N[C@@H](CCCNC(=N)N)C(=O)N[C@@H](CCC(N)=O)C(=O)N[C@@H](Cc1c[nH]c2ccccc12)C(=O)N[C@@H](Cc1c[nH]c2ccccc12)C(=O)N[C@@H](CCC(N)=O)C(=O)N1CCC[C@H]1C(=O)N[C@@H](CO)C(=O)O` [Peptide P12-1] (H-VHWDFRQWWQPS-OH) has a Ki [1] of 7.7 ± 0.7 µM and a Ki [2] of 0.8 ± 0.04 µM.

Molecule `CC[C@H](C)[C@H](NC(=O)[C@@H]1CCCN1C(=O)[C@H](CO)NC(=O)[C@@H](N)Cc1c[nH]c2ccccc12)C(=O)N[C@@H](CO)C(=O)NCC(=O)N[C@@H](CCCCN)C(=O)N[C@@H](Cc1ccccc1)C(=O)N[C@@H](Cc1ccccc1)C(=O)N[C@@H](CCC(N)=O)C(=O)N[C@@H](CCCNC(=N)N)C(=O)N[C@@H](Cc1ccccc1)C(N)=O` [Peptide P12-4A] (H-WSPISGKFFQRF-NH2) has a Ki [1] of 4.2 ± 1.3 µM and a Ki [2] of 2.6 ± 0.7 µM.

With `CC(C)C[C@H](NC(=O)[C@H](CO)NC(=O)[C@@H](N)CCC(N)=O)C(=O)N1CCC[C@H]1C(=O)N[C@@H](Cc1c[nH]c2ccccc12)C(=O)N[C@@H](CS)C(=O)N[C@@H](Cc1ccc(O)cc1)C(=O)N1CCC[C@H]1C(N)=O` [Peptide P12-3B] (H-QSLPWCYP-NH2) the Ki [1] was 39 ± 20 µM.

Molecule `CC[C@H](C)[C@@H]1NC(=O)[C@H](CO)NC(=O)[C@H](Cc2c[nH]c3ccccc23)NC(=O)[C@H](Cc2c[nH]c3ccccc23)NC(=O)[C@H](CO)NC(=O)[C@@H](NC(=O)[C@H](C)N)CSSC[C@@H](C(=O)NCC(=O)O)NC(=O)[C@H](CC(C)C)NC(=O)[C@H](Cc2c[nH]cn2)NC1=O` [Peptide C7C-1] (H-ACSWWSIHLCG-OH; disulfide 2-10) has a Ki [1] of 112 ± 6 µM and a Ki [2] of 3.7 ± 0.7 µM.

In the case of `CC(C)[C@H](N)C(=O)N[C@@H](Cc1c[nH]cn1)C(=O)N[C@@H](Cc1c[nH]c2ccccc12)C(=O)N[C@@H](CC(=O)O)C(=O)N[C@@H](Cc1ccccc1)C(=O)N[C@@H](CCCNC(=N)N)C(=O)N[C@@H](CCC(N)=O)C(=O)N[C@@H](Cc1c[nH]c2ccccc12)C(N)=O` [Peptide P12-1B] (H-VHWDFRQW-NH2), the Ki [1] is reported as 41 ± 6.4 µM and the Ki [2] is reported as 7 ± 1.7 µM.

B1: P12-3B (peptide)
peptide: QSLPWCYP-NH2
notes: also called C-terminally truncated variant of P12-3
For B1, the Ki [3] was greater than 10 µM.

B2: P12-4D (peptide)
peptide: Ac-PISGKFFQ-NH2
B2 was tested, and the Ki [4] was greater than 500 µM and the Ki [3] was greater than 10 µM.

B3: P12-2A (peptide)
peptide: LNFPMPSRPHSS-NH2
B3 was tested, and the Ki [4] was greater than 100 µM and the Ki [3] was greater than 10 µM.

B4: P12-3C (peptide)
peptide: Ac-WCYPHCVT-OH
modifications: cysteine pairing not given here
notes: also called N-terminally truncated variant of P12-3
Work on B4 yielded a Ki [3] greater than 10 µM.

B5: P12-4C (peptide)
peptide: Ac-SGKFFQRF
Work on B5 yielded a Ki [4] greater than 500 µM and a Ki [3] greater than 10 µM.

B6: P12-1C (peptide)
peptide: Ac-FRQWWQPS
notes: also called N-terminally truncated variant of P12-1
B6 showed a Ki [3] greater than 10 µM and a Ki [5] of 139 µM.

B7: P12-4B (peptide)
peptide: WSPISGKF-NH2
With B7 the Ki [4] was greater than 500 µM and the Ki [3] was greater than 10 µM.

B8: P12-2D (peptide)
peptide: Ac-FPMPSRPH-NH2
For B8, the Ki [4] was greater than 500 µM and the Ki [3] was greater than 10 µM.

B9: P12-2 (peptide)
peptide: LNFPMPSRPHSS
B9 showed a Ki [4] greater than 100 µM and a Ki [3] greater than 10 µM.

B10: P12-2B (peptide)
peptide: LNFPMPSR-NH2
Work on B10 yielded a Ki [4] greater than 500 µM and a Ki [3] greater than 10 µM.

B11: C7C-2 (peptide)
peptide: ACNAGHLSQCG
modifications: disulfide 2-10 (inferred)
notes: the synthesized peptide has one C-terminal glycine
For B11, the Ki [4] was greater than 500 µM and the Ki [3] was greater than 10 µM.

B12: C7C-1B (peptide)
peptide: ACSWWSIHLCGGG
modifications: disulfide 2-10 (inferred)
B12 gave a Ki [4] greater than 100 µM and a Ki [3] greater than 10 µM.

B13: C7C-2A (peptide)
peptide: ACNAGHLSQCG-NH2
modifications: disulfide 2-10 (inferred)
notes: also called amidated derivative of C7C-2
B13 was tested, and the Ki [4] was greater than 500 µM and the Ki [3] was greater than 10 µM.

B14: P12-2C (peptide)
peptide: Ac-MPSRPHSS
B14 gave a Ki [4] greater than 500 µM and a Ki [3] greater than 10 µM.
